The values below come from US20040157327A1.

In this assay the target is Pablo, full length (pro-apoptotic Bcl-xL binding protein) (human) (UniProt Q92558). Description: cell-based or functional assay.
UniProt Q92558, sequence (Q92558 whole entry): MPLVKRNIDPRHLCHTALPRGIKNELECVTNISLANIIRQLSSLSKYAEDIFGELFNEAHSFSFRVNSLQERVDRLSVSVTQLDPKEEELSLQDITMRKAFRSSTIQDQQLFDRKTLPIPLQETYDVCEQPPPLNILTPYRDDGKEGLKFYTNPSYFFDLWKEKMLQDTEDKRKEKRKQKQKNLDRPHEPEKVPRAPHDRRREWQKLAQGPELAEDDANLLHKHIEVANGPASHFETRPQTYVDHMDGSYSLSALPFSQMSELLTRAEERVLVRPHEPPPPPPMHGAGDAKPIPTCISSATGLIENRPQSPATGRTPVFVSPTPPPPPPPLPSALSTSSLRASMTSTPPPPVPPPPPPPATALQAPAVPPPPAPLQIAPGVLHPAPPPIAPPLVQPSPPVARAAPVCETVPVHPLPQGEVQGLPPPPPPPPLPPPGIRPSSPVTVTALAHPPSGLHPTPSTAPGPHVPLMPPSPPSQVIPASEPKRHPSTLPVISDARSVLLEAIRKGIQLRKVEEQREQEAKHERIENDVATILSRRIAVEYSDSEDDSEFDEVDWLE

The substance Bcl-xL-eGFP (from UniProt Q07817 1-233) gave an apoptotic nuclei at 48 hours post-transfection/induction (PC12-Pablo cells, Hoechst stain) of 3.5% and a percentage of PC12 cells that were eGFP+, 48 hours post-transfection/induction of 14%.
